Assay results reported in patent WO2001077362A1.

Target: purified soluble human HM1.24 antigen (HA-tagged, from soluble human HM1.24 antigen-expressing CHO cells) (human)
Experiment: sandwich ELISA with purified antigen at 5000-fold dilution (about 76.4 ng/mL) captured by anti-HA antibody; lowest measurable antibody concentration

reshaped human anti-HM1.24 antibody (humanized anti-HM1.24 antibody), light chain version a and heavy chain version s
measurement limit: 500 pg/mL
